Measured values from patent US20090270506A1 (published 2009).
One block for each binder: values may come before it.

Columns and labels:
[1] = biological target: human 2,3-oxidosqualene:lanosterol cyclase with C-terminal myc-epitope and 6xHis-tag (human) (UniProt P48449); assay: self-association; sedimentation equilibrium AUC at 14,000 rpm, 0.6% C8E5, supernatant at equilibrium
[2] = biological target: human 2,3-oxidosqualene:lanosterol cyclase with C-terminal myc-epitope and 6xHis-tag (human) (UniProt P48449); assay: self-association; sedimentation equilibrium AUC at 14,000 rpm, 0.8% β-OG, supernatant at equilibrium
[3] = biological target: human 2,3-oxidosqualene:lanosterol cyclase with C-terminal myc-epitope and 6xHis-tag (human) (UniProt P48449); assay: self-association; sedimentation equilibrium AUC at 14,000 rpm, 0.016% DDM, supernatant at equilibrium
[4] = biological target: human 2,3-oxidosqualene:lanosterol cyclase with C-terminal myc-epitope and 6xHis-tag (human) (UniProt P48449); assay: self-association; sedimentation equilibrium AUC at 14,000 rpm, 0.06% LDAO, supernatant at equilibrium
[5] = biological target: human 2,3-oxidosqualene:lanosterol cyclase with C-terminal myc-epitope and 6xHis-tag (human) (UniProt P48449); assay: self-association; sedimentation equilibrium AUC at 14,000 rpm, 0.2% Triton X-100, supernatant at equilibrium
[6] = biological target: human 2,3-oxidosqualene:lanosterol cyclase with C-terminal myc-epitope and 6xHis-tag (human) (UniProt P48449); assay: self-association; sedimentation equilibrium AUC at 14,000 rpm, 0.2% β-OG (below CMC), supernatant at equilibrium
[7] = biological target: the molecule itself; assay: sedimentation equilibrium, analytical ultracentrifuge, 0.8% β-OG (self-association)
Description: Sedimentation equilibrium (SE) runs were performed at various speeds at 20° C. with sample volume of 100 μl using an Optima XL-I analytical ultracentrifuge (Beckman-Coulter, Palo Alto). The initial protein concentrations were 0.2-0.6 mg/ml in 20 mM Tris-HCl pH 7.5, 5% glycerol, 1 mM TCEP, 0.8% β-OG and 1 mM MgCl₂ (buffer B). The equilibrium absorbance profiles were recorded after 20 hours at 280 nm.
Analysis of the profiles was performed with the Beckman software package and the Schuck program [sequence] […] All solvent densities matched to the detergent densities by addition of sucrose, or not matched, were measured with a PAAR density meter, type DMA4500 (Anton Paar, Graz, Austria). The detergent densities were assessed in the buffer without protein from separate SE runs where the interference detection optics was used for the non absorbing detergents. […] Because of the sucrose addition the hydration state of the protein has to be considered. […] Thus, this value was used. […] The profiles were analysed by a model with various numbers of bound micelles. […] Thus, the analysis was carried out under this assumption providing a vbar value of 0.791 cm³/g. Similarly, the non-density-matched sample with β-OG under the cmc was analysed with vbar=0746 cm³/g.

- monomer [%] [1]: 100%
- monomer [%] [2]: 100%
- dimer [%] [3]: 23%
- monomer [%] [3]: 70%
- tetramer [%] [3]: 7%
- dimer [%] [4]: 6%
- monomer [%] [4]: 94%
- monomer [%] [5]: 100%
- dimer [%] [6]: 71%
- monomer [%] [6]: 0%
- tetramer [%] [6]: 18%
- trimer [%] [6]: 11%
B1: human 2,3-oxidosqualene:lanosterol cyclase with C-terminal myc-epitope and 6xHis-tag (enzyme)
chain: TEGTCLRRRGGPYKTEPATDLGRWRLNCERGRQTWTYLQDERAGREQTGLEAYALGLDTKNYFKDLPKAHTAFEGALNGMTFYVGLQAEDGHWTGDYGGPLFLLPGLLITCHVARIPLPAGYREEIVRYLRSVQLPDGGWGLHIEDKSTVFGTALNYVSLRILGVGPDDPDLVRARNILHKKGGAVAIPSWGKFWLAVLNVYSWEGLNTLFPEMWLFPDWAPAHPSTLWCHCRQVYLPMSYCYAVRLSAAEDPLVQSLRQELYVEDFASIDWLAQRNNVAPDELYTPHSWLLRVVYALLNLYEHHHSAHLRQRAVQKLYEHIVADDRFTKSISIGPISKTINMLVRWYVDGPASTAFQEHVSRIPDYLWMGLDGMKMQGTNGSQIWDTAFAIQALLEAGGHHRPEFSSCLQKAHEFLRLSQVPDNPPDYQKYYRQMRKGGFSFSTLDCGWIVSDCTAEALKAVLLLQEKCPHVTEHIPRERLCDAVAVLLNMRNPDGGFATYETKRGGHLLELLNPSEVFGDIMIDYTYVECTSAVMQALKYFHKRFPEHRAAEIRETLTQGLEFCRRQQRADGSWEGSWGVCFTYGTWFGLEAFACMGQTYRDGTACAEVSRACDFLLSRQMADGGWGEDFESCEERRYVQSAQSQIHNTCWAMMGLMAVRHPDIEAQERGVRCLLEKQLPNGDWPQENIAGVFNKSCAISYTSYRNIFPIWALGRFSQLYPERALAGHLEQKLISEEDLNSAVDHHHHHH

B2: human 2,3-oxidosqualene:lanosterol cyclase, wild-type without tag (enzyme)
chain: TEGTCLRRRGGPYKTEPATDLGRWRLNCERGRQTWTYLQDERAGREQTGLEAYALGLDTKNYFKDLPKAHTAFEGALNGMTFYVGLQAEDGHWTGDYGGPLFLLPGLLITCHVARIPLPAGYREEIVRYLRSVQLPDGGWGLHIEDKSTVFGTALNYVSLRILGVGPDDPDLVRARNILHKKGGAVAIPSWGKFWLAVLNVYSWEGLNTLFPEMWLFPDWAPAHPSTLWCHCRQVYLPMSYCYAVRLSAAEDPLVQSLRQELYVEDFASIDWLAQRNNVAPDELYTPHSWLLRVVYALLNLYEHHHSAHLRQRAVQKLYEHIVADDRFTKSISIGPISKTINMLVRWYVDGPASTAFQEHVSRIPDYLWMGLDGMKMQGTNGSQIWDTAFAIQALLEAGGHHRPEFSSCLQKAHEFLRLSQVPDNPPDYQKYYRQMRKGGFSFSTLDCGWIVSDCTAEALKAVLLLQEKCPHVTEHIPRERLCDAVAVLLNMRNPDGGFATYETKRGGHLLELLNPSEVFGDIMIDYTYVECTSAVMQALKYFHKRFPEHRAAEIRETLTQGLEFCRRQQRADGSWEGSWGVCFTYGTWFGLEAFACMGQTYRDGTACAEVSRACDFLLSRQMADGGWGEDFESCEERRYVQSAQSQIHNTCWAMMGLMAVRHPDIEAQERGVRCLLEKQLPNGDWPQENIAGVFNKSCAISYTSYRNIFPIWALGRFSQLYPERALAGHP
notes: Expressed in P. pastoris from pPICZB; the whole entry is named; also called hOSC wildtype; hOSC wild-type
- binding result [7]: no binding
